Data from the supplement of paper PMC12042874.
± gives the uncertainty stated by the source.

Experiment: amyloid nucleation score (Sup35N fusion, yeast selection) (log enrichment); library NNK3; higher = more nucleation; inactive = no reads after selection
Summary of the method: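 Sup35N was fused to peptides of 20 random codons and expressed in psi-negative yeast, which were induced with 100 μM copper sulfate for 24 hours and then grown on medium lacking adenine and uracil for 7 days at 30°C. Plasmid inserts from input and output were sequenced on Illumina. The nucleation score is the DiMSum log enrichment of output over input reads, centred on the mode score of non-aggregating sequences. Sequences with under 100 input reads were left out, and random libraries had three technical output replicates.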
In the case of AEARTPIECVC, the amyloid nucleation score is reported as “inactive”.
With GRLCELITSMY the amyloid nucleation score was “inactive”.
For PSVHCMWCPRQPDVFPRWIV, the amyloid nucleation score was “inactive”.
Work on YIRLGWNVSWMLSSSEYVSH yielded an amyloid nucleation score of 0.853 ± 0.12.
ICSFRTWA showed an amyloid nucleation score of 0.978 ± 0.1.
With SLYLGWVPAIELLG the amyloid nucleation score was “inactive”.
For VSLVMSQVLRHHRCLLIYYL, the amyloid nucleation score was “inactive”.
With TIRFGSSLPCNPDSSYLLRI the amyloid nucleation score was “inactive”.
For RWWVNSCMEIM, the amyloid nucleation score was “inactive”.
In the case of NTNGMQDLSLCCRCYDTELR, the amyloid nucleation score is reported as “inactive”.
In the case of SSARYPAGLIVLHWLGCLKA, the amyloid nucleation score is reported as “inactive”.
For YIRVNTILDLD, the amyloid nucleation score was “inactive”.
In the case of VKGQWR, the amyloid nucleation score is reported as “inactive”.
Substance FIKYFANLRKFCDILSCSL has an amyloid nucleation score of 1.27 ± 0.14.
In the case of LMDDTVQMYR, the amyloid nucleation score is reported as “inactive”.
With KFFQIIRASVF the amyloid nucleation score was “inactive”.
For INNLYDVQRGIADFWKSWLV, the amyloid nucleation score was “inactive”.
For RFYTSCVCHHLLIYYLIGSS, the amyloid nucleation score was “inactive”.
In the case of VFKFVLLSLYMFQWGNAFPM, the amyloid nucleation score is reported as “inactive”.
For IPYRLVGMLTVVTCRTSKLC, the amyloid nucleation score was “inactive”.
For CYLMYLSEILAYHVATWQAT, the amyloid nucleation score was “inactive”.
With RDSFTVIVSSSSPMPKLVPE the amyloid nucleation score was “inactive”.
In the case of CASCEVFMLR, the amyloid nucleation score is reported as “inactive”.
With DVFDYVSTVVTNYW the amyloid nucleation score was “inactive”.
For GLVLISKC, the amyloid nucleation score was “inactive”.
In the case of NGWCHYWVWASIYDPNEISA, the amyloid nucleation score is reported as “inactive”.
With SISCKKVGGSKASQRPYKA the amyloid nucleation score was “inactive”.
For GYNNVESGNKYMLEDDFAFS, the amyloid nucleation score was “inactive”.
With IKAYSRRSLSSSG the amyloid nucleation score was “inactive”.
With DRSDSMYPINMREESREFTF the amyloid nucleation score was “inactive”.
With VGNEECIYQIRFFLRLSGSL the amyloid nucleation score was “inactive”.
For MTYAVCGYSIFHKITRTRFG, the amyloid nucleation score was “inactive”.
For WGVSLLVFHVTKQVRNRFYY, the amyloid nucleation score was “inactive”.
With SYLNRPWD the amyloid nucleation score was “inactive”.
For THEVISSFGMVFRNSNFCNS, the amyloid nucleation score was “inactive”.
For VAFTLIVRFCS, the amyloid nucleation score was “inactive”.
In the case of KMRSSVYFLDYNWNKTLPCL, the amyloid nucleation score is reported as -0.541 ± 1.1.
In the case of IVGAAVRGKMRFSMSRAWLG, the amyloid nucleation score is reported as “inactive”.
In the case of YMIATGTVGWNRLTLKCVVV, the amyloid nucleation score is reported as “inactive”.
In the case of FPQFLSIAGPKPHCKN, the amyloid nucleation score is reported as “inactive”.
In the case of RLCSKRVKSTDGGSEHRMSW, the amyloid nucleation score is reported as “inactive”.
For LSDVDPEFLFLLLFFP, the amyloid nucleation score was “inactive”.
For ECCQSSSVITNFSSFVKGGA, the amyloid nucleation score was “inactive”.
In the case of LLYQFSELQMASWNNKKKEL, the amyloid nucleation score is reported as “inactive”.
ASYEDFWDNLA showed an amyloid nucleation score of -0.239 ± 1.4.
With WPGNWSQFNQCWCRETTCYV the amyloid nucleation score was “inactive”.
For YRFSRFKMRAVPTMILKLNV, the amyloid nucleation score was -0.056 ± 0.35.
For WQCNCGASICASHKKCANMN, the amyloid nucleation score was 0.128 ± 0.3.
In the case of EILISNCEVDRRLYRGGN, the amyloid nucleation score is reported as -0.618 ± 0.98.
SEPRWSISDYWTKSVDMVLW gave an amyloid nucleation score of 1.07 ± 0.2.
In the case of LVVCTSAFIGMTDY, the amyloid nucleation score is reported as -0.532 ± 0.8.
For FMFVVWGYINGFGYLTGVN, the amyloid nucleation score was “inactive”.
For SLFMMWLYVCQLYCLFDGIE, the amyloid nucleation score was “inactive”.
With QNTGLYVN the amyloid nucleation score was “inactive”.
Substance SLASYLFTVTATNRYCERGA has an amyloid nucleation score of 0.996 ± 0.12.
With FQCWYNKIRKFWVVHRWVSM the amyloid nucleation score was “inactive”.
In the case of HWFTLSKYGR, the amyloid nucleation score is reported as “inactive”.
In the case of LPGSDRQFPREAVHYSRMRG, the amyloid nucleation score is reported as 0.714 ± 0.32.
For YDYTRCLLYFVALRYQGGNS, the amyloid nucleation score was “inactive”.
HIEVCGTLLYCGDRQISVNN showed an amyloid nucleation score of 0.49 ± 0.27.
With TSGKGFYMLSVGVRVYQWDI the amyloid nucleation score was “inactive”.
With KSIIYTILLVWFKYGVHSPL the amyloid nucleation score was “inactive”.
With SYSTARDSVGLSSWSSLIKW the amyloid nucleation score was “inactive”.
With IDALIYG the amyloid nucleation score was “inactive”.
With RSSKSEGYGFVGVGI the amyloid nucleation score was “inactive”.
With RQISLYFSFNRFSMYFTLNL the amyloid nucleation score was “inactive”.
In the case of LVPFSNGCQSGPLTLIWYVA, the amyloid nucleation score is reported as 2.04 ± 0.068.
For VTRGVLLCEPVTGMHQVACG, the amyloid nucleation score was “inactive”.
In the case of FLSPSGVD, the amyloid nucleation score is reported as “inactive”.
With MKDASFQP the amyloid nucleation score was “inactive”.
Substance DSFVLSTTFLSSGTSAACLG has an amyloid nucleation score of -1.32 ± 2.5.
In the case of FCKLQYTGQS, the amyloid nucleation score is reported as “inactive”.
With LFGNSNRSGCSSLRQIGCLC the amyloid nucleation score was “inactive”.
With LWPWFNCLRGRCGRIVCGWR the amyloid nucleation score was “inactive”.
YPLCEL showed an amyloid nucleation score of 0.193 ± 0.19.
For ECADLWARLYHFF, the amyloid nucleation score was “inactive”.
With NLKSWFFCIVHCIRLHASVN the amyloid nucleation score was “inactive”.
For SRYMNRR, the amyloid nucleation score was “inactive”.
For LICYLYAKMC, the amyloid nucleation score was “inactive”.
In the case of CALHRAGRTLVCFIYIFSGM, the amyloid nucleation score is reported as “inactive”.
For SDSFSGPVKEPRYWGSQ, the amyloid nucleation score was “inactive”.
With VWRWGDLNSSGCCMWSRLNM the amyloid nucleation score was 1.99 ± 0.1.
With IGRLMA the amyloid nucleation score was “inactive”.
In the case of IGSFVKDKLSRRIGTGRMEI, the amyloid nucleation score is reported as “inactive”.
In the case of MISWLNQKYHVLNQNFIYG, the amyloid nucleation score is reported as “inactive”.
In the case of MALHRFS, the amyloid nucleation score is reported as “inactive”.
With VLSCVAIRSYILHKVSVGIC the amyloid nucleation score was “inactive”.
In the case of VNGCIRCCTPVSKYISVDLA, the amyloid nucleation score is reported as “inactive”.
For SLKELRVSLSSLCACDSNNN, the amyloid nucleation score was “inactive”.
With LLCLVAKRYGMGRLF the amyloid nucleation score was “inactive”.
In the case of MLDAQSASWYYFRGSLFDVR, the amyloid nucleation score is reported as “inactive”.
Substance CSYWTGYCCQIVGLKSFGLV has an amyloid nucleation score of 2.4 ± 0.083.
For YSPSLGSDQACSQLCSLSTF, the amyloid nucleation score was “inactive”.
In the case of INLFTAYAVSL, the amyloid nucleation score is reported as “inactive”.
In the case of KQVNWS, the amyloid nucleation score is reported as “inactive”.
In the case of SYEHFRWLYHVFKVARFFFL, the amyloid nucleation score is reported as “inactive”.
FWFWMIVDNRWYSLAVEARW gave an amyloid nucleation score of -0.304 ± 0.8.
With FWKKLWNSSF the amyloid nucleation score was “inactive”.
In the case of TDKAICISLFRVIRLYAYAK, the amyloid nucleation score is reported as “inactive”.
With GFTRFFYLSRLMVGNMI the amyloid nucleation score was “inactive”.
For ADVGGD, the amyloid nucleation score was “inactive”.
With VAEEHSVLSCQDADFCASSL the amyloid nucleation score was “inactive”.
With TVKYHGSPCVLHDLLIVERR the amyloid nucleation score was “inactive”.
For ILFIDSSFLIVR, the amyloid nucleation score was “inactive”.
With QKMPSANDRLCISSFLYNLE the amyloid nucleation score was “inactive”.
With IYDSRWTTNDSSCTTVFTEQ the amyloid nucleation score was “inactive”.
Substance INHLSWCPVYFYFWNPVYLR has an amyloid nucleation score of 1.49 ± 0.11.
For VKHQVDCLIVVI, the amyloid nucleation score was “inactive”.
For RLFYCVSAVRIHVCGNSKLF, the amyloid nucleation score was “inactive”.
In the case of DWGTASSSTVGFEQSSDKVF, the amyloid nucleation score is reported as “inactive”.
In the case of SLRHLDFFRLTGFWHFYALD, the amyloid nucleation score is reported as “inactive”.
For VMLRMDARQWHSLATVTVVP, the amyloid nucleation score was “inactive”.
For EMRKAIRRL, the amyloid nucleation score was “inactive”.
With PWGLGNSARCWCFFMGHCEA the amyloid nucleation score was -0.889 ± 2.5.
With YIQITQMAALARLYIYMRMC the amyloid nucleation score was “inactive”.
GAVLLSGEEL showed an amyloid nucleation score of 0.871 ± 0.17.
With LILFPRKRHTGSM the amyloid nucleation score was “inactive”.
Substance IYSIKSV has an amyloid nucleation score of -0.357 ± 0.68.
With DLAWPRMPTIQARVEQYCLI the amyloid nucleation score was “inactive”.
For IYSVTMTRHVFFNGFQVQLV, the amyloid nucleation score was “inactive”.
For CGTFNCYNGAL, the amyloid nucleation score was 0.699 ± 0.19.
With IQASWFNWKWLL the amyloid nucleation score was “inactive”.
In the case of LLWCGFQDCEMKC, the amyloid nucleation score is reported as “inactive”.
Work on AVENSQFW yielded an amyloid nucleation score of 0.204 ± 0.38.
With LYWEPKLTSDFKRLDLRLVP the amyloid nucleation score was “inactive”.
In the case of RFNGDQMYFNLSFKISELFP, the amyloid nucleation score is reported as 1.09 ± 0.079.
For TFTLSCFTCNGFVSDVVHCD, the amyloid nucleation score was 3.21 ± 0.054.
With VSFEFEIRESSGISCM the amyloid nucleation score was “inactive”.
For DMACMVFGWE, the amyloid nucleation score was “inactive”.
With STFSYSPVACWCFGGISQVG the amyloid nucleation score was -0.797 ± 2.5.
With KPGIIIVFVGHG the amyloid nucleation score was “inactive”.
With SNTCHLINAKVDPVHERMLS the amyloid nucleation score was 0.176 ± 0.85.
In the case of RSKNWAVIMIGR, the amyloid nucleation score is reported as “inactive”.
In the case of ICFFRGAARMNCLGYQGITR, the amyloid nucleation score is reported as “inactive”.
With LKNSL the amyloid nucleation score was “inactive”.
With DKVTHQCSISMSWAWRVHVV the amyloid nucleation score was “inactive”.
VYYNSVNVLSVSGCRLDGLN showed an amyloid nucleation score of 1.66 ± 0.11.
For FNKLVWNHLSGCV, the amyloid nucleation score was “inactive”.
For SYNGYRSGLFGYGSTVSFIS, the amyloid nucleation score was “inactive”.
With DQCVLRLPFVIRGSHVSGRK the amyloid nucleation score was “inactive”.
For ICLVEISDGAFRKR, the amyloid nucleation score was “inactive”.
For WLFRGVVRNRRALARGIRAG, the amyloid nucleation score was “inactive”.
With FIQYEHNLPGTARGKCIQC the amyloid nucleation score was “inactive”.
With TVRGYRLAHYIAAGYSCMSR the amyloid nucleation score was “inactive”.
With YLWLWASWSWRGNQNKTSWA the amyloid nucleation score was “inactive”.
In the case of YSYRVRTSFVENRKCA, the amyloid nucleation score is reported as “inactive”.
In the case of HNVCTKAKTRMYRVERS, the amyloid nucleation score is reported as “inactive”.
In the case of PVLGYAECIYKMYKSSQVSW, the amyloid nucleation score is reported as “inactive”.
For YREREAAR, the amyloid nucleation score was “inactive”.
With RYRLSCWWIRLGGNRLAWY the amyloid nucleation score was “inactive”.
For HLSLAVEFA, the amyloid nucleation score was “inactive”.
In the case of FYRRNAI, the amyloid nucleation score is reported as “inactive”.
For FKDFIIICLAKLFGIFYDTD, the amyloid nucleation score was “inactive”.
In the case of DMFVECRLISFNFTFIRVLI, the amyloid nucleation score is reported as “inactive”.
QSLSNKVMLLSGRVNQVDVA showed an amyloid nucleation score of -0.935 ± 1.5.
For VNTFGLDHEITSFMMCGETG, the amyloid nucleation score was “inactive”.
For GPLRVPVMMGCWRRIDRMPW, the amyloid nucleation score was “inactive”.
With HKRIFGCVISVPFTSCFT the amyloid nucleation score was “inactive”.
For GWLLRCVSTLGGLKTLLC, the amyloid nucleation score was “inactive”.
